Results reported in paper PMC11860134, “PET Imaging of CD206 Macrophages in Bleomycin-Induced Lung Injury Mouse Model” (Pharmaceutics, 2025).

How the values were obtained:
[1] = tested on: collagen I and III fibers; assay: Picro Sirius Red (PSR) staining of lung sections, ImageJ quantification; assay type: in vivo, mouse; settings: lungs of BLM cohort given the tracer
Experimental: Following PET/CT imaging, lungs from all cohorts (bleomycin-induced lung injury model administered with linear or cyclic [^68Ga]Ga-RP832c, healthy mice administered with linear or cyclic [^68Ga]Ga-RP832c, and mice not administered bleomycin) were collected and fixed in 10% formalin. After 48 h of fixation, the lungs were transferred to 70% ethanol and after an additional 24 h, samples were sent for preparation of tissue sections. Tissue sections were prepared by the UAB Pathology Core Research Laboratory, Birmingham, AL, USA. Subsequently, tissue sections were stained with CD206 (Mouse MMR/CD206 Antibody (20 µg/mL, Cat: AF2535, R&D, Minneapolis, MN, USA). The secondary antibody was the Rabbit anti-goat IgG (H+L) HRP (1:2000 dilution, Cat no: 81-1620, Invitrogen, Waltham MA, USA). Picro Sirius Red Staining was conducted using a commercial kit (Picro Sirius Red Stain Kit, ab150681, Abcam, Waltham, MA, USA). Collagen was stained in red while muscle fibers and cytoplasm were stained in yellow.
Picro Sirius Red staining was carried out to detect collagens due to pulmonary fibrosis. The kit is intended for use in the histological visualization of collagen I and III fibers. Picro Sirius Red solution was applied to completely cover the tissue section and then the sample was incubated for 60 min. Slides were rinsed twice in acetic acid solution (0.5%). Slides were rinsed in absolute alcohol and dehydrated in 2 changes in absolute alcohol. The mounting media used was Permount™ Mounting Medium, Pittsburgh, PA, USA. CD206-, PSR-, and H&E-stained samples were imaged using EVOS™ M7000 Imaging System (Invitrogen, Waltham, MA, USA). For IHC semi-quantification, all slides were scored under a light microscope according to the degree of staining (0 points negative for staining, 1 point light yellow, 2 points light brown, and 3 points dark brown) and the range of positivity (1 points 0 to 25%, 2 points 26 to 50%, 3 points 51 to 75%, and 4 points 76 to 100%), and the final scores were summed for analysis.

[2] = biological target: T1, murine CD206 (Recombinant mouse MMR/CD206 protein) (Mus musculus, UniProt Q61830); assay: CD206 plate binding assay; settings: 1 µg CD206 per well, 2 µg (0.1 µCi) tracer, n = 10
T1 construct: purchased R&D Systems
T1 sequence (Q61830 19-1388 limits assumed): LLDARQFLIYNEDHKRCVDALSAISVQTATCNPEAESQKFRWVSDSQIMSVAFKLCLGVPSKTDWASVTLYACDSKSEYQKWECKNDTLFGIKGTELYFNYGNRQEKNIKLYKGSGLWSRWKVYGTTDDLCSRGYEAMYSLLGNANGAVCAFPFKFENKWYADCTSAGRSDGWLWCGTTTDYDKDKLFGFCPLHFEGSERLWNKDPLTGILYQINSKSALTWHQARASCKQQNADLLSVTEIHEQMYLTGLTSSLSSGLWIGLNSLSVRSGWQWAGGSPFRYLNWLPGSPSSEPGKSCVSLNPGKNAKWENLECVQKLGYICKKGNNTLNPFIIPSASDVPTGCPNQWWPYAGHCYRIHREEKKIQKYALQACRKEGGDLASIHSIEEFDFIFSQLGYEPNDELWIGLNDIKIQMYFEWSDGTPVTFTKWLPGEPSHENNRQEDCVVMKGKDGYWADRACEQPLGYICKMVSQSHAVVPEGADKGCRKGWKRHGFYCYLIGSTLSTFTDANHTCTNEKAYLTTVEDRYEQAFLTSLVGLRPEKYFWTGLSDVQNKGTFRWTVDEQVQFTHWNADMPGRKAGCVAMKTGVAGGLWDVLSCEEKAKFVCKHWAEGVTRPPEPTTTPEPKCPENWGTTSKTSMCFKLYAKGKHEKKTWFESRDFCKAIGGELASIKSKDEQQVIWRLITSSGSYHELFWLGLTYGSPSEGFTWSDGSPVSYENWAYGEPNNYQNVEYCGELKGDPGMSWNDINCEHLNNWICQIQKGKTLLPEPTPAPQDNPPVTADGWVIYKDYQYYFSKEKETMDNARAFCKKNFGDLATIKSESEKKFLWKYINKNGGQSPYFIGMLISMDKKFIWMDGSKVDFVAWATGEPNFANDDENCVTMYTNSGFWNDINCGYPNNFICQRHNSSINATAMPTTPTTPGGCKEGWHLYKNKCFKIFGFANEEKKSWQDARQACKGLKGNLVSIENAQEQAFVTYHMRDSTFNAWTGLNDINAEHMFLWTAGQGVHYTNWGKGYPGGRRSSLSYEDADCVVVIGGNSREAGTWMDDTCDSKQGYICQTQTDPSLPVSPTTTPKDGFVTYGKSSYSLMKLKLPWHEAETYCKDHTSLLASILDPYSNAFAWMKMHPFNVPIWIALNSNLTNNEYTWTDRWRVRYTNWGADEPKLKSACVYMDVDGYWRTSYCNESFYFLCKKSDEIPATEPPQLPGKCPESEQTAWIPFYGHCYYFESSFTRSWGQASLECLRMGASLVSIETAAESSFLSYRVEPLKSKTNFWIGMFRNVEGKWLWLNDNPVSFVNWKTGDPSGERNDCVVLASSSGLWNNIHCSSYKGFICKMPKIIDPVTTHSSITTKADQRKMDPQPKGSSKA
Experimental: The affinity of linear and cyclic RP832c to murine CD206 (Recombinant mouse MMR/CD206 protein, R&D Systems, Minneapolis, MN, USA) protein was tested via plate binding study using blocking and non-blocking groups. 48 h before the experiment 1 µg of CD206 (in 0.1 mL 15 mM Na2CO3, 35 mM NaHCO3) was added to each well of 96-well flat bottom plate. The plate was kept at 4 °C for 48 h. On the day of the study, 5 µg (0.1 mL aqueous solution) of linear or cyclic RP832c was added to each well (n = 10) of each blocking group and was incubated at 37 °C for an hour. Then, 2 µg (0.1 µCi) of [^68Ga]RP832c was added to each well (n = 10 for each group) of both blocking and non-blocking groups. Both groups were incubated at 37 °C for an hour. Wells were rinsed with PBS (pH = 7) three times. Three wells were used as standards. Each well of the blocking and non-blocking groups and the standards were measured via the HIDEX gamma counter (Lablogic, Clair-Mel City, FL, USA). Data were decay corrected, and binding (%) values were calculated according to standards.

With RWKFGGFKWR [cyclic [^68Ga]Ga-RP832c] the “area % values for PSR staining (ImageJ)” value ([1]; 1 week post bleomycin instillation) was 0.86 ± 0.44%, the “area % values for PSR staining (ImageJ)” value ([1]; 2 weeks post bleomycin instillation) was 1.28 ± 1.06% and the “area % values for PSR staining (ImageJ)” value ([1]; 3 weeks post bleomycin instillation) was 1.36 ± 0.75%. For the same sequence, the “CD206 plate binding %” value ([2]; blocking: 5 µg linear or cyclic RP832c, 37 °C 1 h before tracer) was 10.36 ± 0.44% and the “CD206 plate binding %” value ([2]; non-blocking, 37 °C 1 h, gamma counter) was 37.60 ± 1.40%.
